In patent US20020146411A1, “Anticoagulant agents useful in treatment of thrombosis” (SmithKline Beecham Corporation, priority 1996, published 2002):
“Also recorded” adds a separate entry of the source.

Columns and labels:
rhFIX = molecular target: T1, rhFIX (Homo sapiens, UniProt P00740, T194A); test: Titration microcalorimetry of rhFIX binding
T1 construct: purchased Genetics Institute
Method: The interactions between rhFIX and SB 249417 BC2 and other humanized constructs were characterized by titration microcalorimetry, which measures binding interactions in solution from the intrinsic heat of binding. Nine injections of 106 uM FIX were made into the calorimeter containing 2 uM mAb SB 249417. Binding was detected in the first 4 injections as exothermic heats. At the last 5 injections the mAb binding sites were saturated with FIX and only background heats of mixing were observed. […] Nonlinear least squares analysis of the data yield the binding affinity.
The data in Table 3 indicate that the affinities of SB 249417, BC2 and its other humanized constructs are within error (a factor of 2) the same.

[1] = test system: rat carotid artery thrombosis; test: Rat carotid artery thrombosis model, humanized mAbs, Example 8; format: in vivo; conditions: 3.0 mg/kg i.v. bolus, 60 minutes after onset of injury
Method: In order to evaluate the efficacy of humanized anti-Factor IX antibodies in prevention of arterial thrombosis, the rat carotid artery thrombosis model as described above in Example 3 was used. Baseline parameters were established for carotid blood flow, arterial pressure, heart rate, vessel patency and activated partial thromboplastin time (aPTT). Fifteen minutes thereafter, carotid injury was effected for […]. The parameters were determined 60 minutes after onset of carotid injury. Carotid thrombus was also extracted from the carotid artery and weighed.
All agents were administered intravenously 15 minutes before the onset of carotid injury. The following treatments were examined and compared to the anti-Factor IX mAb BC2.

[2] = molecular target: Factor IX to IXa conversion (Homo sapiens, UniProt P00740); test: Inhibition of Factor IX to IXa conversion (Table I); format: biochemical
[3] = molecular target: T2, Recombinant human Factor IX (rhFIX) (Homo sapiens, UniProt P00740, T194A); test: BIAcore kinetics of Factor IX binding to mAb on protein A surface; conditions: rhFIX 49 nM, 5 mM Ca2+, biosensor
T2 construct: purchased Genetics Institute
Method: The kinetics of Factor IX binding to SB 249417 was assessed by BIAcore analysis with antibody bound to an immobilized protein A surface. Recombinant human Factor IX (rhFIX, Genetics Institute) at 49 nM was used and measurements performed in the presence of 5 mM Ca^2+. The interaction was characterized by rapid association, kass 2.0×10^5 M^−1 s^−1 and relatively slow off-rate, kdiss=4.1×10^−4 s^−1.

[4] = test system: rat carotid artery thrombosis; test: Rat carotid artery thrombosis model (FeCl3 injury), Example 3; format: in vivo
Excerpt: In order to evaluate the efficacy of anti-Factor IX antibodies in prevention of arterial thrombosis, the rat carotid artery thrombosis model as reported by Schumacher et al. in J. Cardio. Pharm. 22, 526-533 (1993) was adapted. This model consists of segmental injury to the carotid endothelium by oxygen radicals generated by FeCl3 solution applied on the surface of the carotid artery.
In brief, rats were anesthetized with pentobarbitone sodium, the jugular vein cannulated for intravenous injections and the left femoral artery cannulated for blood pressure and heart rate monitoring. The carotid artery was isolated by aseptic technique via a surgical incision in the neck and equipped with a magnetic flow probe for blood flow measurement. After a period of stabilization, baseline parameters were established for the following variables: carotid blood flow, arterial pressure, heart rate, activated partial thromboplastin time (aPTT) and prothrombin time (PT). Thereafter, a premeasured Whatman filter paper soaked in 50% FeCl3 solution was placed on the carotid artery for 15 minutes for complete injury of the underlying endothelial cells. After removal of the FeCl3 soaked paper, the experiment was followed to completion over 60 minutes. At the end of the experiment, the carotid thrombus was extracted from the carotid artery and weighed.
All agents were administered 15 minutes prior to the onset of carotid injury. The following treatments were examined and compared to the Factor IX mAb BC2.
1. Heparin: 15, 30, 60 or 120 U/kg bolus, followed by infusion of 0.5, 1, 2 or 4 U/kg/min, respectively over 60 minutes
2. Acetylsalicylic acid (ASA, aspirin): 5 mg/kg bolus
3. Anti-Factor IX mAb BC2: 1, 3 or 6 mg/kg bolus, followed by infusion 0.3, 1, or 2 ug/kg/min, respectively over 60 minutes
4. Heparin: 30U/kg bolus+lU/kg/min+ASA at 5 mg/kg
5. Anti-Factor IX mAb BC2: 1 mg/kg+0.3 ug/kg/min+ASA at 5 mg/kg

[5] = test system: Cynomologous monkey Factor IX; test: Species cross-reactivity, monkey Factor IX; format: binding
rat Factor IX = rat Factor IX (Rattus norvegicus, UniProt P16296); test: Species cross-reactivity, rat Factor IX; format: binding
Factor IXa = molecular target: T3, Factor IXa (Homo sapiens, UniProt P00740); test: Binding to Factor IXa (Table I)
T3 construct: as well as the active protease, Factor IXa

Factor IX [6] = molecular target: T4, Factor IX (Homo sapiens, UniProt P00740); test: aPTT clotting time of human plasma, anti-Factor IX mAbs; format: biochemical; set-up: Human plasma samples were either freshly drawn and kept on ice or reconstituted; host or cells: human plasma
Method: The effect of increasing concentrations of anti-coagulation factor antibodies on activated partial thromboplastin time (aPTT) of human plasma was determined in a fibrometer (Becton-Dickinson Microbiology Systems, Cockeysville, Md.) using Baxter reference procedure LIB0293-J, 3/93 revision (Baxter Scientific, Edison, N.J.).
Prior to the start of the experiment, 2 to 3 mL of 0.02 M CaCl2 in a 5 mL tube were placed into the heating chamber of the fibrometer. Human plasma samples were either freshly drawn and kept on ice or reconstituted per the manufacturer's recommendation from Hemostasis Reference Plasma (American Diagnostics, Greenwich, Conn.).
Unfractionated heparin from porcine intestinal mucosa (Sigma Chemical, St. Louis, Mo.), low molecular weight heparin from porcine intestinal mucosa (Lovenox®, enoxaparin sodium, Rhone-Poulenc Rorer Pharmaceuticals, Collegeville, Pa.) or mAb anticoagulants were prepared as approximately 50 uM stock solutions and serially diluted directly into the test plasma. A blank containing plasma without anticoagulant was included as a reference.
Two fibroTube® fibrometer cups were filled with 100 ul test plasma or 100 ul test plasma with anticoagulant and 125 ul of actin activated cephaloplastin reagent (Actin reagent, from rabbit brain cephalin in ellagic acid, available from Baxter Scientific), respectively and placed in the fibrometer wells at 37° C.
After one minute, 100 ul of actin reagent was transferred to a plasma-containing cup and the contents mixed several times with a pipette. After a 3 minute incubation, 100 ul of CaCl2, prewarmed at 37° C., was added to the plasma-actin reagent mixture using a Automatic Pipette/Timer-trigger (Becton-Dickinson). The clotting times were noted and the results in FIG. 1 are presented as clotting times as a function of final concentrations of anticoagulant in the total assay volume of 300 ul. The nominal concentration of Factor IX in the assay is 30-40 nM.
Target sequence in this assay (P00740 47-461): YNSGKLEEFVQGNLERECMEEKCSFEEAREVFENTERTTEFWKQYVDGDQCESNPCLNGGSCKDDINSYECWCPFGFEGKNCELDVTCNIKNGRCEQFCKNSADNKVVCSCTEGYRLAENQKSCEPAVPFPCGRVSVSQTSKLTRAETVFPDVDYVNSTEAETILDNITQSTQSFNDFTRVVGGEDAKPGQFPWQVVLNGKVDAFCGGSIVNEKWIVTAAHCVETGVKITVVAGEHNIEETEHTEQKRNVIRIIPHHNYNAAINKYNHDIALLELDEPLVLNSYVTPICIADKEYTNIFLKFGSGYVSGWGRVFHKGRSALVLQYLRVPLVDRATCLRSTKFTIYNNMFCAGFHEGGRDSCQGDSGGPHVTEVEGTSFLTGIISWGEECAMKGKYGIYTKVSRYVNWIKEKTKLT

Factor IX [7] = molecular target: T4, Factor IX; test: Binding to Factor IX (in vitro properties, Table I); set-up: Human plasma samples were either freshly drawn and kept on ice or reconstituted; host or cells: human plasma
Method: Approximately two weeks later, 1.0 mL of hybridoma medium was removed from each well and tested for anti-Factor IX antibodies using an ELISA assay as described by Jenny, R. J. et al. in Meth. Enzymol. 222, 400-416 (1993). Briefly, factor IX was immmobilized onto plastic wells of 96-well microtiter plates. Hybridoma supernatants or dilutions of purified antibody were then incubated in the wells. The wells were washed and the presence of antibody-antigen complexes detected with a goat anti-murine immunoglobulin second antibody conjugated to horseradish peroxidase and the chromogenic substrate o-dianisidine.
Target sequence in this assay (P00740 47-461): as above

[8] = molecular target: T5, Factor IXa in Xase complex (Homo sapiens, UniProt P00740); test: Inhibition of IXa activity in Xase complex (Table I); format: biochemical
T5 construct: as well as the active protease, Factor IXa

Factor IX [9] = molecular target: T4, Factor IX; test: Cofactor requirement for mAb activity (Table I)
Target sequence in this assay (P00740 29-461 limits assumed): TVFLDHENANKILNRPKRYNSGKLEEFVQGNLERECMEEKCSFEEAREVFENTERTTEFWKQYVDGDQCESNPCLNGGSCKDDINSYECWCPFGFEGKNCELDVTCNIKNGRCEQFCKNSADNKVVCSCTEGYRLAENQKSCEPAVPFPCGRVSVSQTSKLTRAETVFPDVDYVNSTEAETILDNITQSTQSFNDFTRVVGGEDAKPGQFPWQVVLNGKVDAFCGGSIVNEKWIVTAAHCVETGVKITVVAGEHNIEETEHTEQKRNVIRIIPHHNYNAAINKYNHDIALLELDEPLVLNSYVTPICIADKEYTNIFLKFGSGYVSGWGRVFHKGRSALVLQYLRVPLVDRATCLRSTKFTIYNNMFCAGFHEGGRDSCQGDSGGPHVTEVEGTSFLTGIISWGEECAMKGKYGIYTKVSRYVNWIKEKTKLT

Factor IX gla domain = test: Epitope mapping of BC2 with Factor IX/Factor VII chimeric constructs; format: binding
Method: A library of chimeric constructs composed of sequences of Factor IX spliced into the framework of the homologous protein Factor VII was constructed and used to map the epitope for the Factor IX BC2 mAb. See Cheung et al., Thromb. Res. 80, 419-427 (1995). Binding was measured using a BiaCore 2000 surface plasmon resonance device. The BC2 antibody was coupled directly to the chip using the NHS/EDC reaction. Binding was measured by 2 min of contact time at 20 uL/min with 200 nM of each of the given constructs in 25 mM MOPS, pH 7.4, 0.15 M NaCl, 5 mM CaCl2. Dissociation was monitored for 3 min using the same buffer with no protein. No binding was detected to the wild type construct in the presence of 50 mM EDTA.

Chain of rat Factor IX (P16296 40-462): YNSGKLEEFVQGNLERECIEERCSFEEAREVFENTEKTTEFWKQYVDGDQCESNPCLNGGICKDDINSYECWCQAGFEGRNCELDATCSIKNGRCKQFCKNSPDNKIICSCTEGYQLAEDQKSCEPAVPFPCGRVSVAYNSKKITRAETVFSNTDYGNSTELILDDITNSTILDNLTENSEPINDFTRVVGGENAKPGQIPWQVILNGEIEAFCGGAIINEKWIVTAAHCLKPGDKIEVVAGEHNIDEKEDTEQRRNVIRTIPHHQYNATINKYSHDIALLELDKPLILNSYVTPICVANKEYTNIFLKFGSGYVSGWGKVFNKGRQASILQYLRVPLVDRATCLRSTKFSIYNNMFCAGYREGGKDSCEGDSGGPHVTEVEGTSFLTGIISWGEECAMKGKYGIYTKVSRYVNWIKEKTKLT
T2 sequence (P00740 47-461 T194A): as the sequence (P00740 47-461) above, with T148A counted along it
T5 sequence (P00740 47-191 limits assumed): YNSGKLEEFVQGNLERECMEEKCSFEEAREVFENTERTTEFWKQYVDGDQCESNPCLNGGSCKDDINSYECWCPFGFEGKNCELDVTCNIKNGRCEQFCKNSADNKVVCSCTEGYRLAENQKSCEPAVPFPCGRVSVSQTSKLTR
T5 sequence (P00740 227-461 limits assumed): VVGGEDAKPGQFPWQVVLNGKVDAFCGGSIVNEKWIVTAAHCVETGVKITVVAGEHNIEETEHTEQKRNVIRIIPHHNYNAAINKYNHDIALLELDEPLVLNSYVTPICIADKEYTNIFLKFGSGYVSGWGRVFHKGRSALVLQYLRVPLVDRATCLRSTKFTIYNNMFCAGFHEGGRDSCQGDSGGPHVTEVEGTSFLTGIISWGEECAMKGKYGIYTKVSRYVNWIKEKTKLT
T3 sequence (P00740 47-191 limits assumed): as the sequence (P00740 47-191 limits assumed) above
T3 sequence (P00740 227-461 limits assumed): as the sequence (P00740 227-461 limits assumed) above
T1 sequence (P00740 47-461 T194A): as the sequence (P00740 47-461) above, with T148A counted along it
Chain of Factor IX to IXa conversion (P00740 29-461 limits assumed): as the sequence (P00740 29-461 limits assumed) above

B1: SB 249417: humanized anti-Factor IX mAb, heavy chain F9HZHC 1-1 (SEQ ID NO: 52), light chain F9HZLC 2-0 (SEQ ID NO: 74) (antibody, V domains shown)
VH: QVQLVQSGSELKKPGASVKVSCKASGYTFTNYGMNWVRQAPGQGLKWMGWINTRNGKSTYVDDFKGRFVFSLDSSVSTAYLQISSLKADDTAVYYCTREGNMDGYFPFTYWGQGTLVTVSS
VL: QIVLTQSPSSLSASVGDRVTITCRASSSVNYMHWYQQKPGKAPKPWIYATSNLASGVPSRFSGSGSGTDYTFTISSLQPEDIATYYCQQWSINPRTFGQGTKVEIKR
Stoichiometry of Factor IX Binding, Isothermal Titration Calorimetry (rhFIX): 1.5 moles Factor IX: 1 mole mAb
effect on aPTT (FIG. 8) [1]: modest effect

B2: BC2: murine monoclonal antibody directed against human Factor IX and/or Factor IXa, isotype IgG2a (antibody, V domains shown)
VH: QIQLVQSGPELKKPGETVKISCKASGYTFTNYGMNWVKQAPGKGLKWMGWINTRNGKSTYVDDFKGRFAFSLESSASTANLQIDNLKDEDTATYFCTREGNMDGYFPFTYWGQGTLVTVSA
VL: QIVLSQSPAILSASPGEKVTMTCRASSSVNYMHWYQQKPGSSPKPWIYATSNLASGVPARFSGSGSGTSYSLTISRVEAEDAATYYCQQWSINPRTFGGGTKLEIKR
Inhibits IX to IXa conversion [2]: yes
kass [3]: 480000 M⁻¹ s⁻¹
kdiss [3]: 0.00091 s⁻¹
effect on prothrombin time (PT) at 60 minutes (FIG. 5) [4]: not by any of the Factor IX mAb doses
effect on thrombus weight (FIG. 7) [4]: dose-dependently reduced
effect on carotid artery occlusion ([4]; Factor IX mAb at the two higher doses (3, 6 mg/kg bolus + infusion)): completely blocked
effect on thrombus formation ([4]; high dose of Factor IX mAb): virtually prevented completely
increase in clotting time (aPTT) ([4]; highest dose of Factor IX mAb (6 mg/kg bolus + 2 ug/kg/min)): ≤ 3 fold
effect on carotid artery occlusion (patency) ([4]; lower dose of Factor IX mAb alone (1 mg/kg + 0.3 ug/kg/min)): largely failed to secure patency
effect on aPTT at 60 minutes (FIG. 4) ([4]; regimens of b146-b150, given 15 minutes before injury): modest effect
Species cross-reactivity: monkey Factor IX [5]: cross-react
Species cross-reactivity: rat Factor IX (rat Factor IX): cross-reacted; also recorded: species cross-reactivity with rat
Binds Factor IXa (Factor IXa): binds Factor IXa and yes
[formula] (row head is a formula not shown) (Factor IX [6]; Table I, the values are: max aPTT as % of normal aPTT): 350%
aPTT at saturating concentrations of mAb (Factor IX [6]; normal human plasma, FIG. 1): about 90 sec
increase of the aPTT at saturating concentrations (Factor IX [6]; normal human plasma, FIG. 1): 3.5 fold
maximal value of clot time in the aPTT assay (Factor IX [6]; self-limiting effect, summary description): about 100 seconds
Binds Factor IX (Factor IX [7]): yes
Inhibits IXa activity in Xase complex [8]: inhibits Factor IXa activity and yes
Cofactor requirement (Factor IX [9]): Divalent metal cofactors are required for activity; also recorded: Ca^2+ > Mn^2+
epitope (Factor IX gla domain): residues 3-11 of the Factor IX gla domain
